Consider 19 variants from the supplement of paper PMC10266784.

First the molecules themselves.
B1: library; numbered along this chain (parent)
chain: MAAAAAAAAEQQSSNGPVKKSMREKAVERRSVNKEHNSNFKAGYIPIDEDRLHKTGLRGRKGNLAICVIILLFILAVINLIITLVIWAVIRIGPNGCDSMEFHESGLLRFKQVSDMGVIHPLYKSTVGGRRNENLVITGNNQPIVFQQGTTKLSVENNKTSITSDIGMQFFDPRTQNILFSTDYETHEFHLPSGVKSLNVQKASTERITSNATSDLNIKVDGRAIVRGNEGVFIMGKTIEFHMGGNMELKAENSIILNGSVMVSTTRLPSSSSGDQLGSGDWVRYKLCMCADGTLFKVQVTSQNMGCQISDNPCGNTH

The variants in the data set derive from B1. Put plainly: SGCB cell-surface expression functional score (HA stain, bin4 vs bin1, normalised to synonymous) (log10 ratio); higher = more cell-surface SGCB (functional). On the procedure: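 Deep mutational scan of full-length human SGCB (YFP-SGCB-HA, NNN codon sublibraries A-F) delivered by lentivirus at low MOI into ADG-HEK293 cells stably expressing SGCA, SGCD and SGCG. YFP-positive cells were stained for surface HA on unpermeabilized cells and FACS-sorted into bins. The functional score is log10(frequency in high bin 4 / frequency in low bin 1), normalised per chunk so that synonymous variants have mean 0 and SD 0.5. Scores are the median over codons and over duplicate biological replicates; scores below -0.5 are called non-functional. Scale: negative means deleterious.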
On to MAAAAAAAAEQQSSNGPVGKSMREKAVERRSVNKEHNSNFKAGYIPIDEDRLHKTGLRGRKGNLAICVIILLFILAVINLIITLVIWAVIRIGPNGCDSMEFHESGLLRFKQVSDMGVIHPLYKSTVGGRRNENLVITGNNQPIVFQQGTTKLSVENNKTSITSDIGMQFFDPRTQNILFSTDYETHEFHLPSGVKSLNVQKASTERITSNATSDLNIKVDGRAIVRGNEGVFIMGKTIEFHMGGNMELKAENSIILNGSVMVSTTRLPSSSSGDQLGSGDWVRYKLCMCADGTLFKVQVTSQNMGCQISDNPCGNTH [K19G], for which the “SGCB cell-surface expression functional score (log10)” value is 0.02.
The same measure for MAAAAAAAAEQQSSNGPVIKSMREKAVERRSVNKEHNSNFKAGYIPIDEDRLHKTGLRGRKGNLAICVIILLFILAVINLIITLVIWAVIRIGPNGCDSMEFHESGLLRFKQVSDMGVIHPLYKSTVGGRRNENLVITGNNQPIVFQQGTTKLSVENNKTSITSDIGMQFFDPRTQNILFSTDYETHEFHLPSGVKSLNVQKASTERITSNATSDLNIKVDGRAIVRGNEGVFIMGKTIEFHMGGNMELKAENSIILNGSVMVSTTRLPSSSSGDQLGSGDWVRYKLCMCADGTLFKVQVTSQNMGCQISDNPCGNTH [K19I]: 0.14; for MAAAAAAAAEQQSSNGPVAKSMREKAVERRSVNKEHNSNFKAGYIPIDEDRLHKTGLRGRKGNLAICVIILLFILAVINLIITLVIWAVIRIGPNGCDSMEFHESGLLRFKQVSDMGVIHPLYKSTVGGRRNENLVITGNNQPIVFQQGTTKLSVENNKTSITSDIGMQFFDPRTQNILFSTDYETHEFHLPSGVKSLNVQKASTERITSNATSDLNIKVDGRAIVRGNEGVFIMGKTIEFHMGGNMELKAENSIILNGSVMVSTTRLPSSSSGDQLGSGDWVRYKLCMCADGTLFKVQVTSQNMGCQISDNPCGNTH [K19A]: 0.35; for MAAAAAAAAEQQSSNGPVFKSMREKAVERRSVNKEHNSNFKAGYIPIDEDRLHKTGLRGRKGNLAICVIILLFILAVINLIITLVIWAVIRIGPNGCDSMEFHESGLLRFKQVSDMGVIHPLYKSTVGGRRNENLVITGNNQPIVFQQGTTKLSVENNKTSITSDIGMQFFDPRTQNILFSTDYETHEFHLPSGVKSLNVQKASTERITSNATSDLNIKVDGRAIVRGNEGVFIMGKTIEFHMGGNMELKAENSIILNGSVMVSTTRLPSSSSGDQLGSGDWVRYKLCMCADGTLFKVQVTSQNMGCQISDNPCGNTH [K19F]: 0.01.
Take MAAAAAAAAEQQSSNGPVHKSMREKAVERRSVNKEHNSNFKAGYIPIDEDRLHKTGLRGRKGNLAICVIILLFILAVINLIITLVIWAVIRIGPNGCDSMEFHESGLLRFKQVSDMGVIHPLYKSTVGGRRNENLVITGNNQPIVFQQGTTKLSVENNKTSITSDIGMQFFDPRTQNILFSTDYETHEFHLPSGVKSLNVQKASTERITSNATSDLNIKVDGRAIVRGNEGVFIMGKTIEFHMGGNMELKAENSIILNGSVMVSTTRLPSSSSGDQLGSGDWVRYKLCMCADGTLFKVQVTSQNMGCQISDNPCGNTH [K19H]: the “SGCB cell-surface expression functional score (log10)” value was found to be 0.21.
Consider MAAAAAAAAEQQSSNGPVNKSMREKAVERRSVNKEHNSNFKAGYIPIDEDRLHKTGLRGRKGNLAICVIILLFILAVINLIITLVIWAVIRIGPNGCDSMEFHESGLLRFKQVSDMGVIHPLYKSTVGGRRNENLVITGNNQPIVFQQGTTKLSVENNKTSITSDIGMQFFDPRTQNILFSTDYETHEFHLPSGVKSLNVQKASTERITSNATSDLNIKVDGRAIVRGNEGVFIMGKTIEFHMGGNMELKAENSIILNGSVMVSTTRLPSSSSGDQLGSGDWVRYKLCMCADGTLFKVQVTSQNMGCQISDNPCGNTH [K19N], for which the “SGCB cell-surface expression functional score (log10)” value came out at 0.14.
In the case of MAAAAAAAAEQQSSNGPVEKSMREKAVERRSVNKEHNSNFKAGYIPIDEDRLHKTGLRGRKGNLAICVIILLFILAVINLIITLVIWAVIRIGPNGCDSMEFHESGLLRFKQVSDMGVIHPLYKSTVGGRRNENLVITGNNQPIVFQQGTTKLSVENNKTSITSDIGMQFFDPRTQNILFSTDYETHEFHLPSGVKSLNVQKASTERITSNATSDLNIKVDGRAIVRGNEGVFIMGKTIEFHMGGNMELKAENSIILNGSVMVSTTRLPSSSSGDQLGSGDWVRYKLCMCADGTLFKVQVTSQNMGCQISDNPCGNTH [K19E] it was 0.33; in that of MAAAAAAAAEQQSSNGPVDKSMREKAVERRSVNKEHNSNFKAGYIPIDEDRLHKTGLRGRKGNLAICVIILLFILAVINLIITLVIWAVIRIGPNGCDSMEFHESGLLRFKQVSDMGVIHPLYKSTVGGRRNENLVITGNNQPIVFQQGTTKLSVENNKTSITSDIGMQFFDPRTQNILFSTDYETHEFHLPSGVKSLNVQKASTERITSNATSDLNIKVDGRAIVRGNEGVFIMGKTIEFHMGGNMELKAENSIILNGSVMVSTTRLPSSSSGDQLGSGDWVRYKLCMCADGTLFKVQVTSQNMGCQISDNPCGNTH [K19D], 0.06.
The same measure for MAAAAAAAAEQQSSNGPVCKSMREKAVERRSVNKEHNSNFKAGYIPIDEDRLHKTGLRGRKGNLAICVIILLFILAVINLIITLVIWAVIRIGPNGCDSMEFHESGLLRFKQVSDMGVIHPLYKSTVGGRRNENLVITGNNQPIVFQQGTTKLSVENNKTSITSDIGMQFFDPRTQNILFSTDYETHEFHLPSGVKSLNVQKASTERITSNATSDLNIKVDGRAIVRGNEGVFIMGKTIEFHMGGNMELKAENSIILNGSVMVSTTRLPSSSSGDQLGSGDWVRYKLCMCADGTLFKVQVTSQNMGCQISDNPCGNTH [K19C]: -0.11.
In the case of MAAAAAAAAEQQSSNGPVLKSMREKAVERRSVNKEHNSNFKAGYIPIDEDRLHKTGLRGRKGNLAICVIILLFILAVINLIITLVIWAVIRIGPNGCDSMEFHESGLLRFKQVSDMGVIHPLYKSTVGGRRNENLVITGNNQPIVFQQGTTKLSVENNKTSITSDIGMQFFDPRTQNILFSTDYETHEFHLPSGVKSLNVQKASTERITSNATSDLNIKVDGRAIVRGNEGVFIMGKTIEFHMGGNMELKAENSIILNGSVMVSTTRLPSSSSGDQLGSGDWVRYKLCMCADGTLFKVQVTSQNMGCQISDNPCGNTH [K19L] it was 0.3; in that of MAAAAAAAAEQQSSNGPVMKSMREKAVERRSVNKEHNSNFKAGYIPIDEDRLHKTGLRGRKGNLAICVIILLFILAVINLIITLVIWAVIRIGPNGCDSMEFHESGLLRFKQVSDMGVIHPLYKSTVGGRRNENLVITGNNQPIVFQQGTTKLSVENNKTSITSDIGMQFFDPRTQNILFSTDYETHEFHLPSGVKSLNVQKASTERITSNATSDLNIKVDGRAIVRGNEGVFIMGKTIEFHMGGNMELKAENSIILNGSVMVSTTRLPSSSSGDQLGSGDWVRYKLCMCADGTLFKVQVTSQNMGCQISDNPCGNTH [K19M], 0.02; in that of MAAAAAAAAEQQSSNGPQKKSMREKAVERRSVNKEHNSNFKAGYIPIDEDRLHKTGLRGRKGNLAICVIILLFILAVINLIITLVIWAVIRIGPNGCDSMEFHESGLLRFKQVSDMGVIHPLYKSTVGGRRNENLVITGNNQPIVFQQGTTKLSVENNKTSITSDIGMQFFDPRTQNILFSTDYETHEFHLPSGVKSLNVQKASTERITSNATSDLNIKVDGRAIVRGNEGVFIMGKTIEFHMGGNMELKAENSIILNGSVMVSTTRLPSSSSGDQLGSGDWVRYKLCMCADGTLFKVQVTSQNMGCQISDNPCGNTH [V18Q], 0.17.
As for MAAAAAAAAEQQSSNGPYKKSMREKAVERRSVNKEHNSNFKAGYIPIDEDRLHKTGLRGRKGNLAICVIILLFILAVINLIITLVIWAVIRIGPNGCDSMEFHESGLLRFKQVSDMGVIHPLYKSTVGGRRNENLVITGNNQPIVFQQGTTKLSVENNKTSITSDIGMQFFDPRTQNILFSTDYETHEFHLPSGVKSLNVQKASTERITSNATSDLNIKVDGRAIVRGNEGVFIMGKTIEFHMGGNMELKAENSIILNGSVMVSTTRLPSSSSGDQLGSGDWVRYKLCMCADGTLFKVQVTSQNMGCQISDNPCGNTH [V18Y], the “SGCB cell-surface expression functional score (log10)” value worked out at 0.14.
In the case of MAAAAAAAAEQQSSNGPPKKSMREKAVERRSVNKEHNSNFKAGYIPIDEDRLHKTGLRGRKGNLAICVIILLFILAVINLIITLVIWAVIRIGPNGCDSMEFHESGLLRFKQVSDMGVIHPLYKSTVGGRRNENLVITGNNQPIVFQQGTTKLSVENNKTSITSDIGMQFFDPRTQNILFSTDYETHEFHLPSGVKSLNVQKASTERITSNATSDLNIKVDGRAIVRGNEGVFIMGKTIEFHMGGNMELKAENSIILNGSVMVSTTRLPSSSSGDQLGSGDWVRYKLCMCADGTLFKVQVTSQNMGCQISDNPCGNTH [V18P] it was 0.29; in that of MAAAAAAAAEQQSSNGPSKKSMREKAVERRSVNKEHNSNFKAGYIPIDEDRLHKTGLRGRKGNLAICVIILLFILAVINLIITLVIWAVIRIGPNGCDSMEFHESGLLRFKQVSDMGVIHPLYKSTVGGRRNENLVITGNNQPIVFQQGTTKLSVENNKTSITSDIGMQFFDPRTQNILFSTDYETHEFHLPSGVKSLNVQKASTERITSNATSDLNIKVDGRAIVRGNEGVFIMGKTIEFHMGGNMELKAENSIILNGSVMVSTTRLPSSSSGDQLGSGDWVRYKLCMCADGTLFKVQVTSQNMGCQISDNPCGNTH [V18S], 0.21.
For MAAAAAAAAEQQSSNGPNKKSMREKAVERRSVNKEHNSNFKAGYIPIDEDRLHKTGLRGRKGNLAICVIILLFILAVINLIITLVIWAVIRIGPNGCDSMEFHESGLLRFKQVSDMGVIHPLYKSTVGGRRNENLVITGNNQPIVFQQGTTKLSVENNKTSITSDIGMQFFDPRTQNILFSTDYETHEFHLPSGVKSLNVQKASTERITSNATSDLNIKVDGRAIVRGNEGVFIMGKTIEFHMGGNMELKAENSIILNGSVMVSTTRLPSSSSGDQLGSGDWVRYKLCMCADGTLFKVQVTSQNMGCQISDNPCGNTH [V18N], the “SGCB cell-surface expression functional score (log10)” value is -0.03.
In the case of MAAAAAAAAEQQSSNGPWKKSMREKAVERRSVNKEHNSNFKAGYIPIDEDRLHKTGLRGRKGNLAICVIILLFILAVINLIITLVIWAVIRIGPNGCDSMEFHESGLLRFKQVSDMGVIHPLYKSTVGGRRNENLVITGNNQPIVFQQGTTKLSVENNKTSITSDIGMQFFDPRTQNILFSTDYETHEFHLPSGVKSLNVQKASTERITSNATSDLNIKVDGRAIVRGNEGVFIMGKTIEFHMGGNMELKAENSIILNGSVMVSTTRLPSSSSGDQLGSGDWVRYKLCMCADGTLFKVQVTSQNMGCQISDNPCGNTH [V18W] it was 0.55.
In the case of MAAAAAAAAEQQSSNGPRKKSMREKAVERRSVNKEHNSNFKAGYIPIDEDRLHKTGLRGRKGNLAICVIILLFILAVINLIITLVIWAVIRIGPNGCDSMEFHESGLLRFKQVSDMGVIHPLYKSTVGGRRNENLVITGNNQPIVFQQGTTKLSVENNKTSITSDIGMQFFDPRTQNILFSTDYETHEFHLPSGVKSLNVQKASTERITSNATSDLNIKVDGRAIVRGNEGVFIMGKTIEFHMGGNMELKAENSIILNGSVMVSTTRLPSSSSGDQLGSGDWVRYKLCMCADGTLFKVQVTSQNMGCQISDNPCGNTH [V18R] it was 0.23.
In the case of MAAAAAAAAEQQSSNGPTKKSMREKAVERRSVNKEHNSNFKAGYIPIDEDRLHKTGLRGRKGNLAICVIILLFILAVINLIITLVIWAVIRIGPNGCDSMEFHESGLLRFKQVSDMGVIHPLYKSTVGGRRNENLVITGNNQPIVFQQGTTKLSVENNKTSITSDIGMQFFDPRTQNILFSTDYETHEFHLPSGVKSLNVQKASTERITSNATSDLNIKVDGRAIVRGNEGVFIMGKTIEFHMGGNMELKAENSIILNGSVMVSTTRLPSSSSGDQLGSGDWVRYKLCMCADGTLFKVQVTSQNMGCQISDNPCGNTH [V18T] it was 0.24.
